This passage reports FRET efficiency (1:15 ratio) results from paper PMC8341984.

The target in the experiment is CFP-cA1-cA1, two chicken ASIC1 subunits concatenated in a dimer with an N terminal CFP (chicken) (UniProt Q1XA76). The experiment in a line: FRET or BRET; FLIM-FRET: lifetime of the CFP donor at the plasma membrane of single live HEK293T ASIC1 KO cells co-transfected at varying cDNA ratios; multi-photon excitation at 860 nm, single exponential fits.

Take “C4 YFP, chicken ASIC1 with YFP at the C4 position of the C tail (from UniProt Q1XA76 1-527) (natural protein)”: the FRET efficiency (1:15 ratio) is 15%.
